{"source": "patent US20030134779A1", "about": "“Method and composition for treatment and/or prevention of antibiotic-resistant microorganism infections” (priority 2002, published 2003)", "molecules": {"B1": {"name": "LF: bovine lactoferrin, 80-kDa iron-binding glycoprotein found in milk (protein, UniProt P24627 20-708, looked up)", "Lactotransferrin": "APRKNVRWCTISQPEWFKCRRWQWRMKKLGAPSITCVRRAFALECIRAIAEKKADAVTLDGGMVFEAGRDPYKLRPVAAEIYGTKESPQTHYYAVAVVKKGSNFQLDQLQGRKSCHTGLGRSAGWIIPMGILRPYLSWTESLEPLQGAVAKFFSASCVPCIDRQAYPNLCQLCKGEGENQCACSSREPYFGYSGAFKCLQDGAGDVAFVKETTVFENLPEKADRDQYELLCLNNSRAPVDAFKECHLAQVPSHAVVARSVDGKEDLIWKLLSKAQEKFGKNKSRSFQLFGSPPGQRDLLFKDSALGFLRIPSKVDSALYLGSRYLTTLKNLRETAEEVKARYTRVVWCAVGPEEQKKCQQWSQQSGQNVTCATASTTDDCIVLVLKGEADALNLDGGYIYTAGKCGLVPVLAENRKSSKHSSLDCVLRPTEGYLAVAVVKKANEGLTWNSLKDKKSCHTAVDRTAGWNIPMGLIVNQTGSCAFDEFFSQSCAPGADPKSRLCALCAGDDQGLDKCVPNSKEKYYGYTGAFRCLAEDVGDVAFVKNDTVWENTNGESTADWAKNLNREDFRLLCLDGTRKPVTEAQSCHLAVAPNHAVVSRSDRAAHVKQVLLHQQALFGKNGKNCPDKFCLFKSETKNLLFNDNTECLAKLGGRPTYEEYLGTEYVTAIANLKKCSTSPLLEACAFLTR"}}, "key": {"[1]": {"tested_on": "S. aureus strains ATCC 25923, SHY97-3906, −4242 and RFT-5", "experiment": "Bacterial growth in MHB", "format": "cell-based, Staphylococcus aureus", "details": "LF alone, sub-MIC (9.1, 36.6, 250 or 500 μg/ml); 4, 8 and 18-h; except for strain SHY97-3906", "protocol": "(§1) The effect of LF or LFC at concentration sub-MICs alone or in combination with sub-MICs of antibiotics on bacterial growth rate of S. aureus, E. coli and K. pneumoniae was determined by monitoring bacterial cultures in MHB with the O.D.600 nm or by the count of colony forming unit per ml (cfu/ml). A volume of 2.5 ml of overnight cultures in MHB adjusted to 0.5-1 McFarland standard in saline were used to inoculate a final volume of 25 ml of fresh MHB containing the desired concentration of tested compounds. All flasks were then incubated at 37° C. with agitation (200 rpm) for 9 h. Aliquots were removed every hour to determine the culture turbidity using the spectrophotometer Philips PU 8800 (Pye Unican Ltd, Cambridge, UK). The combined antibiotic effect on bacterial growth was also determined using concentrations of LF in the presence of different concentrations of antibiotics. Briefly, a volume of 3 ml of fresh MHB containing desired concentration of drugs was adjusted to an optical density of 0.4 at 540 nm after an overnight culture. The culture was then incubated at 37° C with agitation (200 rpm). After incubation, aliquots were removed to determine the culture turbidity (OD540nm) or cfu/ml. To determine the influence of the level of iron on of the growth inhibition by the test compound, 5 μM of FeCl3 were added to the media."}, "[2]": {"tested_on": "S. aureus ATCC 25923", "experiment": "Bacterial growth in MHB", "format": "cell-based, Staphylococcus aureus", "details": "LF alone, sub-MIC", "protocol": "as §1"}, "[3]": {"tested_on": "S. aureus PC-1", "experiment": "Bacterial growth in MHB", "format": "cell-based, Staphylococcus aureus", "details": "LF or LFC alone, sub-MIC", "protocol": "as §1"}, "[4]": {"tested_on": "S. aureus PC-1", "experiment": "Cell morphology by transmission electron microscopy", "format": "cell-based, Staphylococcus aureus", "details": "exposure to LF or LFC", "protocol": "Bacterial cells were grown overnight on MHA or MHB containing sub-MICs of penicillin G with or without LF or LFC. Microorganisms were prepared for transmission electron microscopy by fixation with glutaraldehyde followed by ferritin labelling. This method allows good- preservation of capsular material. Briefly, bacterial cells grown in the presence or absence of antibiotics were fixed in cacodylate buffer (0.1 M, pH 7.0) containing 5% (v/v) glutaraldehyde, for 2 h at 20° C. Fixed microorganims were suspended in cacodylate buffer and allowed to react with the polycationic ferritin (Sigma Chemicals, St-Louis, Mo.; final concentration 1.0 mg/ml) for 30 min at 20° C. The reaction was slowed down by 10-fold dilution with buffer, and the microorganisms were centrifuged and washed three times in cacodylate buffer. Bacterial cells were then immobilized in 4% (w/v) agar, washed 5 times in cacodylate buffer and post-fixed with 2% (w/v) osmium tetroxide for 2 h. […]\nBacterial cells of PC-1 (a constitutively high producing β-lactamase strain) were grown overnight in MHB containing 8 μg/ml of penicillin G, 16 μg/ml of LFC alone or in combination for 4-h at 37° C. with agitation at 150 rpm. Bacteria cell morphology was evaluated by transmission electron microscopy after fixation and ferritin labelling method as previously described."}, "[5]": {"tested_on": "S. aureus SHY97-4320", "experiment": "SDS-PAGE protein profile of whole cells", "format": "cell-based, Staphylococcus aureus", "protocol": "Staphylococcus aureus SHY97-4320 cells growth in MHB containing test compounds were suspended in electrophoresis sample buffer containing 2% sodium dodecyl sulfate (SDS) and 5% 2-mercaptoethanol to a final concentration of 0.1 g per ml. The samples were heated to 100° C. for 5 min before being loaded for electrophoresis on a discontinuous 0.1% SDS-polyacrylamide gel (SDS PAGE) with 6% polyacrylamide stacking gel and 10 or 12% polyacrylamide running gel. Gels were run on a Mini-Protean® II apparatus (Bio Rad laboratories, Richmond, Calif.). Protein profiles were visualised by staining with coomassie brilliant blue R-250 or by silver staining."}, "[6]": {"tested_on": "S. aureus ATCC 25923", "experiment": "Cell morphology by transmission electron microscopy", "format": "cell-based, Staphylococcus aureus", "details": "LF 9.1 μg/ml alone; 18-h", "protocol": "Bacterial cells were grown overnight on MHA or MHB containing sub-MICs of penicillin G with or without LF or LFC. Microorganisms were prepared for transmission electron microscopy by fixation with glutaraldehyde followed by ferritin labelling. This method allows good- preservation of capsular material. Briefly, bacterial cells grown in the presence or absence of antibiotics were fixed in cacodylate buffer (0.1 M, pH 7.0) containing 5% (v/v) glutaraldehyde, for 2 h at 20° C. Fixed microorganims were suspended in cacodylate buffer and allowed to react with the polycationic ferritin (Sigma Chemicals, St-Louis, Mo.; final concentration 1.0 mg/ml) for 30 min at 20° C. The reaction was slowed down by 10-fold dilution with buffer, and the microorganisms were centrifuged and washed three times in cacodylate buffer. Bacterial cells were then immobilized in 4% (w/v) agar, washed 5 times in cacodylate buffer and post-fixed with 2% (w/v) osmium tetroxide for 2 h. Washings were repeated as above, and the samples dehydrated in a graded series of acetone washes. Samples were then washed twice in propylene oxide and embedded in Spurr low-viscosity resin. Thin sections were post-stained with uranyl acetate and lead citrate and examined with an electron microscope (Philips 201) at an accelerating voltage of 60 kV."}, "[7]": {"tested_on": "β-lactamase activity of S. aureus PC-1", "sequence (P00807 25-281)": "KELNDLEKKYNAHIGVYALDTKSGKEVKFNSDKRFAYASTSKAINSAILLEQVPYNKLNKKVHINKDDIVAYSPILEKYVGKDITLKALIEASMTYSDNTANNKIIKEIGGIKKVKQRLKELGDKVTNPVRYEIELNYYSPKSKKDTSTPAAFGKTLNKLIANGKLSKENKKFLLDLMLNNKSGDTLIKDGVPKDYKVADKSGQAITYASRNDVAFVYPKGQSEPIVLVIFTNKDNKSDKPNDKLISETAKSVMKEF", "experiment": "β-lactamase activity, nitrocefin assay, bovine LF/LFC", "format": "cell-based", "details": "LF 1 mg/ml (P<0.05); LFC 32 or 64 μg/ml (P<0.001)", "protocol": "(§2) The effects of sub-MICs of LF (1 mg/ml), LFC (32 and 64 μg/ml) alone or in combination with ampicillin (4μg/ml) or penicillin G (8 μg/ml) were evaluated on the β-lactamase activity of S. aureus strains SHY97-4320 and PC-1. The chromogenic cephalosporin nitrocefin (Becton Dickinson, Microbiology, Cockeysville, Md.) was used in a quantitative spectrophotometric assay. Bacterial cells were first exposed during 4 and 22-h to drugs in broth. The number of bacteria (cfu/ml) were determined and cells aliquots were centrifuged at each point in time. The pellets were suspended in 10 mM HEPES buffer (pH 7.4) to an OD415 nm of 1 for PC-1 and 2 for SHY97-4320. Nitrocefin (100 μM) was added to 100 μl of cells in a final volume of 1 ml. Hydrolysis was measured at 486 nm on spectrophotometer. β-lactamase activity was expressed as ΔO.D.486 nm/min and corrected for bacterial OD."}, "[8]": {"tested_on": "β-lactamase activity of S. aureus SHY97-4320", "sequence (P00807 25-281)": "as above", "experiment": "β-lactamase activity, nitrocefin assay, bovine LF/LFC", "format": "cell-based", "protocol": "as §2"}}, "data": [{"molecule": "B1", "values": [{"measurement": "growth", "setting": "[1]", "result": "did not affect the growth"}, {"measurement": "growth", "setting": "[2]", "result": "delayed growth"}, {"measurement": "growth", "setting": "[3]", "result": "delayed growth"}, {"measurement": "shape and size of cells", "setting": "[4]", "result": "affected the shape and the size"}, {"measurement": "proteins of approximately 59, 42 and 27 kDa in protein profile", "setting": "[5]; 1 mg/ml LF in combination to 8 μg/ml penicillin G", "result": "absent"}, {"measurement": "proteins of approximately 59, 42 and 27 kDa in protein profile", "setting": "[5]; compound alone: 8 μg/ml penicillin G or 1 mg/ml LF, 4-h of growth", "result": "absent"}, {"measurement": "cell morphology", "setting": "[6]", "result": "no obvious effect"}, {"measurement": "β-lactamase activity", "setting": "[7]", "result": "moderately reduces β-lactamase activity"}, {"measurement": "β-lactamase activity", "setting": "[8]; LF 1 mg/ml alone", "result": "no β-lactamase activity"}, {"measurement": "β-lactamase activity", "setting": "[8]; LF 1 mg/ml in combination with 8 μg/ml penicillin G, P<0.001", "result": "a significant reduction of β-lactamase activity"}]}]}
